Results from patent publication US6525022B1, “Receptor specific atrial natriuretic peptides” (Genentech, Inc., priority 1993, dated 2003).
Like-named read-outs stand apart in the source and are kept apart here. Bridges are numbered along the chain shown (N, C = ends). Primed or numbered codes have the meaning given here. Where no end group is shown, it is not given here. [ ]: non-standard residue; d: D form. Phg′ = phenylglycine, D or L; Mpa = O=C(O)CCS

What was measured:
[1] = molecular target: T1, human natriuretic peptide clearance receptor-C (human), P17342; experiment: competition binding, Table I; tracer and receptor format not given
T1 chain: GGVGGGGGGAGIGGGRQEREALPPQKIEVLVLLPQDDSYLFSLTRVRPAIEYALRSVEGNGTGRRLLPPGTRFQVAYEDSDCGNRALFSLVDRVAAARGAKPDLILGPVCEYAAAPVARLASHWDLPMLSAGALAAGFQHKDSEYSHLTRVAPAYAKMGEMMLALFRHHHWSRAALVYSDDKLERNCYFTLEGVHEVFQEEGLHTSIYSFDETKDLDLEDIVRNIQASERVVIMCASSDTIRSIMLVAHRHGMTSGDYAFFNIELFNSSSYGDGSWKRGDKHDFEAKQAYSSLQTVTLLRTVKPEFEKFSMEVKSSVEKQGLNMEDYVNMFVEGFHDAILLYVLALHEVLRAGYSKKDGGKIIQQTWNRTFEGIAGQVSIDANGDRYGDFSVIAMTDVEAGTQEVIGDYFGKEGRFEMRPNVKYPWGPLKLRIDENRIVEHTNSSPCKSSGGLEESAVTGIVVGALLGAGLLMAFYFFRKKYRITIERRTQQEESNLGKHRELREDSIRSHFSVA

[2] = molecular target: T2, human neutral endopeptidase 24.11 (human, UniProt P08473 2-750, limits assumed); experiment: cell-based or functional assay
[3] = molecular target: T2, human neutral endopeptidase 24.11; experiment: cell-based or functional assay; remark: listed apart in the source
[4] = molecular target: T3, human natriuretic peptide clearance receptor-C (human, UniProt P17342 27-541); experiment: competition binding, Table I; tracer and receptor format not given
T3 construct: whole, on cells; also called hNPR-C; human NPR-C
T3 sequence (looked up): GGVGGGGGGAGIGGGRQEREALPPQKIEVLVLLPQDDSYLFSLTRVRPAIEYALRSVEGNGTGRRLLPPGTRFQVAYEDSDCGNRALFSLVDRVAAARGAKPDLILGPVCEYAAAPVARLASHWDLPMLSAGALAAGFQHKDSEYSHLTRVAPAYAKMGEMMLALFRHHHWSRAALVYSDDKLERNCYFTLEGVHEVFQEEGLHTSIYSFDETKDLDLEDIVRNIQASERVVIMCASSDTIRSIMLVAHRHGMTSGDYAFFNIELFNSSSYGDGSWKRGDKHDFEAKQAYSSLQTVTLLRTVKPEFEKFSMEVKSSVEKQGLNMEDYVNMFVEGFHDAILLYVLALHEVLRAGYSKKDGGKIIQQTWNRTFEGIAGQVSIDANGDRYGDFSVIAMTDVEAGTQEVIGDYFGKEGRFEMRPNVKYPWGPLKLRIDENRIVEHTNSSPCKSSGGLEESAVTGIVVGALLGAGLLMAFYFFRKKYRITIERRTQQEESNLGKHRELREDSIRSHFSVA

[5] = molecular target: T4, human natriuretic peptide receptor-A (human, UniProt P16066 33-1061); experiment: as above
T4 construct: whole, on cells; also called hNPR-A; human NPR-A
T4 sequence (looked up): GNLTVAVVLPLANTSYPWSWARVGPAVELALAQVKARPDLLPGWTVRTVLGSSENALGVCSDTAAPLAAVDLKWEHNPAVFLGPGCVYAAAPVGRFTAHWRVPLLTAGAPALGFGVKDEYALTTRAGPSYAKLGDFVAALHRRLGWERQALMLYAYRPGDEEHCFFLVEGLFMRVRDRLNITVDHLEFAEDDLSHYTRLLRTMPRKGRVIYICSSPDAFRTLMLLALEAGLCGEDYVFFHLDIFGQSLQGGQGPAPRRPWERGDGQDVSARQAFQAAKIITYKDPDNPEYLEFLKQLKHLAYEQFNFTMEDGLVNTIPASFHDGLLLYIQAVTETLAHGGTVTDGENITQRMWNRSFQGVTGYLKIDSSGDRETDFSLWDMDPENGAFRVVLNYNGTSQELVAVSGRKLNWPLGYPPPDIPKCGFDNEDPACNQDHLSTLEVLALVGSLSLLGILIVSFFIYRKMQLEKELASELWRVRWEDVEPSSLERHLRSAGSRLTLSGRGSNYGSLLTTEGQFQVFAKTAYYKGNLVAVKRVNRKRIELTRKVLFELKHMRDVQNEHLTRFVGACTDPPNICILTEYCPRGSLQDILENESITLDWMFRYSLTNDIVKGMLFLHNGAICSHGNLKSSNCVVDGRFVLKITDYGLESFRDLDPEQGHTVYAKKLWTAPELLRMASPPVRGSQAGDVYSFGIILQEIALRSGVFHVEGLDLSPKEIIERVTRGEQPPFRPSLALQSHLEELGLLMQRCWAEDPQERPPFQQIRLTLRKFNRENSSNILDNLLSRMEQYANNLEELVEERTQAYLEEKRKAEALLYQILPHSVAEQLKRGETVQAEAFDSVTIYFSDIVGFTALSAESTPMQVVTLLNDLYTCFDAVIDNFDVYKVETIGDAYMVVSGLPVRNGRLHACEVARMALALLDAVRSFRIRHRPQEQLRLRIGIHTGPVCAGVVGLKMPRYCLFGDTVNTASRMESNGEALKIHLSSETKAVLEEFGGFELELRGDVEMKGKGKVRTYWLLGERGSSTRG

T2 sequence (P08473 2-750 limits assumed): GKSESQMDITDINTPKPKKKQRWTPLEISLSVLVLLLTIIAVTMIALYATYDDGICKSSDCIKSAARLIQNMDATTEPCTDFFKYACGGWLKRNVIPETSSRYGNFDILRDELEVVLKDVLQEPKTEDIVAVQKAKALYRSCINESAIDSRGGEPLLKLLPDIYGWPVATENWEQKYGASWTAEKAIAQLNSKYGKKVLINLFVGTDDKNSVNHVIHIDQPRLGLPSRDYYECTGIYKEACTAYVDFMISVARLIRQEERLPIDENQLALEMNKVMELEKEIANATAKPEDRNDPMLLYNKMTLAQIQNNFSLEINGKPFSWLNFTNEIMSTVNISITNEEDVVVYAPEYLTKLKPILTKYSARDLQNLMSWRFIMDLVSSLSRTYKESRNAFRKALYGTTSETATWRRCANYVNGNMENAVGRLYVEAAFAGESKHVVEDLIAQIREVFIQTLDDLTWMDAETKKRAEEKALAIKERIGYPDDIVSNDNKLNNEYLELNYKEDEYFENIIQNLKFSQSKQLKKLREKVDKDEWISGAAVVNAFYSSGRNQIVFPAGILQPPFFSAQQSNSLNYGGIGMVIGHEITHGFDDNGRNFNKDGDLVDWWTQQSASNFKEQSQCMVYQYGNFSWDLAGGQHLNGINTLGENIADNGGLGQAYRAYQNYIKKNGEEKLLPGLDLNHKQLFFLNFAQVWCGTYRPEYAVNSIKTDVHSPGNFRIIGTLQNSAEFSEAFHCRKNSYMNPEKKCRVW

SLRRSSCFAGSIDRIRAQSGLGCNSFRY (modifications not checked) [ANF 78] showed an IC50 [1] of 8.64 nM.

With TAPRSLRRSSCFGGRIDRIRAQSGLGCNSFRY (disulfide 11-27) [ANF 23] the “Half-Life” value [2] was 12.3 h.

For TAPRSLRRSSCFGGRMDRIGAQSGLGCNSFRY [urodilatin], the “Half-Life” value [3] was 27.1 h and the “Half-Life” value [2] was 31 h.

B1: ANF 24 (peptide)
peptide: SLRRSSCFGGRIDRIRAQSGLGCNSFRY
modifications: disulfide 7-23
notes: Synthetic; Cys7-Cys23 disulfide; also called hANF(1-28) M12I, G16R
In the case of B1, the IC50 [4] is reported as 5.64 nM and the “Half-Life” value [2] is reported as 10 h.

For SLRRSSCFGGRIDSIRAQSGLGCNSFRY (disulfide 7-23, also called hANF(1-28) M12I, R14S, G16R) [ANF 25], the “Half-Life” value [3] was 3.32 h, the IC50 [4] was 3.31 nM and the IC50 [5] was 0.056 nM.

B2: ANF 50 (peptide)
peptide: SLRRSSCFTGSMDRIGAQSGLGCNSFRY
modifications: disulfide 7-23
notes: Cys7-Cys23 disulfide; also called hANF(1-28) G9T, R11S
For B2, the IC50 [4] was 251 nM, the IC50 [5] was 0.57 nM and the “Half-Life” value [2] was 1.55 h.

With [Mpa]F[dA]GDIDRIRAQSGLGCNSFRY (ends and bridges not checked) [ANF 92] the “Half-Life” value [3] was 1.77 h.

Work on [Mpa]F[dT]GSIDRIRAQSGLGCNSFRY (disulfide 1-17) [ANF 80] yielded an IC50 [4] of 739 nM and an IC50 [5] of 0.423 nM.

B3: ANF 81 (peptide)
peptide: [Mpa]F[dA]GSIDRIRAQSGLGCNSFRY
modifications: disulfide 1-17; not fully specified; printed as Mpa-Phe-(D-Ala)-Gly-Ser-Ile-Asp-Arg-Ile-Arg-Ala-Gln-Ser-Gly-Leu-Gly-Cys-Asn-Ser-Phe-Arg-Tyr
B3 was tested, and the IC50 [4] was 3860 nM and the IC50 [5] was 1.4 nM.

B4: ANF 90 (peptide)
peptide: SLRRSSCF[dA]GDIDRIRAQSGLGCNSFRY
modifications: disulfide 7-23
notes: Cys7-Cys23 disulfide; also called hANF(1-28) G9(d-Ala), R11D, M12I, G16R
With B4 the IC50 [4] was 6140 nM and the IC50 [5] was 1.2 nM.

Work on SLRRSSC[Phg′]TGSIDRIRAQSGLGCNSFRY (disulfide 7-23; also: Phg configuration D or L not given here) [ANF 100-1] yielded an IC50 [4] of 3230 nM and an IC50 [5] of 0.187 nM.
